The target of one series is T1, Hs-laforin (Homo sapiens, UniProt O95278).
T1 sequence (O95278 1-331): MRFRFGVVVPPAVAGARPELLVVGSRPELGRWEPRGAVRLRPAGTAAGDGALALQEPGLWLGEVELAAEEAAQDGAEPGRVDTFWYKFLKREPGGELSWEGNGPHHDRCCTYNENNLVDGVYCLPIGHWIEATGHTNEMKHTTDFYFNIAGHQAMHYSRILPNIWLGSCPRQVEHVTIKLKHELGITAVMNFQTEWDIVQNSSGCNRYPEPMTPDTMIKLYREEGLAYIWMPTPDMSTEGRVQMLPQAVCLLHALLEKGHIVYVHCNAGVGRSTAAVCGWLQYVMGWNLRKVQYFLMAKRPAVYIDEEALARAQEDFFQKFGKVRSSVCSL
The series can be described thus: p-NPP hydrolysis, absorbance at […] nm. Type of series: biochemical. The following applies: pH 5.5; 37°C; 2 mM DTT; artificial substrate.

Substrate in the series “purified protein”: O=[N+]([O-])c1ccc(OP(=O)(O)O)cc1
The series can be described thus: purified protein. The following applies: pH 6.0, 37°C, 2 mM DTT, artificial substrate.

What is called Km is the substrate concentration at which the rate is half of its maximum. Take `O=[N+]([O-])c1ccc(OP(=O)(O)O)cc1` [p-NPP]: the Km at Hs-laforin worked out at 323 µM.

B1: Δ52-SEX4 (Arabidopsis thaliana) (protein)
chain: AVSESKSSSEMSGVAKDEEKSDEYSQDMTQAMGAVLTYRHELGMNYNFIRPDLIVGSCLQTPEDVDKLRKIGVKTIFCLQQDPDLEYFGVDISSIQAYAKKYSDIQHIRCEIRDFDAFDLRMRLPAVVGTLYKAVKRNGGVTYVHCTAGMGRAPAVALTYMFWVQGYKLMEAHKLLMSKRSCFPKLDAIRNATIDILTGLKRKTVTLTLKDKGFSRVEISGLDIGWGQRIPLTLDKGTGFWILKRELPEGQFEYKYIIDGEWTHNEAEPFIGPNKDGHTNNYAKVVDDPTSVDGTTRERLSSEDPELLEEERSKLIQFLETCSEAEV
A word on the Vmax: it is the top rate of the reaction or transport when substrate is in excess. Broadly, the kcat is the number of substrate molecules converted per active site and unit of time at saturation. The term kcat/Km denotes the second-order rate constant that governs catalysis at low substrate concentration. Turning to B1, in “purified protein”, the Michaelis-Menten constant (Km) was 410 µM, the Vmax was 2.41 µmol/min/mg, the catalytic constant (kcat) was determined as 1.54 s⁻¹ and the specificity constant (kcat/Km) was determined as 3756 M⁻¹ s⁻¹.
